We go through two molecules from patent US20200277377A1 (WUXI BIOLOGICS SHANGHAI, published 2020).

The target in assay [1] is T1, Murine CTLA-4.ECD-6×His (mouse, UniProt P09793 36-161).
T1 construct: extracellular domain; Bought; also called mouse CTLA-4.ECD-6×His; mouse CTLA-4 ECD
As to the kind of experiment: ELISA, antibody titrated on coated mouse CTLA-4.ECD-6xHis, OD450 [C) Murine CTLA-4]. Here is the method: (§1) ELISA was used to test binding of anti-human CTLA-4 antibodies to human, murine and cynomolgus monkey CTLA-4 protein. A 96-well plate was coated with human CTLA-4.ECD-6×His (1.0 μg/mL), cynomoguls monkey CTLA-4.ECD-6×His (0.5 μg/mL) or mouse CTLA-4.ECD-6×His (0.5 μg/mL) at 4° C. for 16-20 hours. After 1 hour blocking with 2% BSA in DBPS, testing antibodies, as well as positive and negative control antibodies were added to the plates and incubated at room temperature for 1 hour. The binding of the antibodies to the plates were detected by HRP-conjugated goat anti-human IgG antibody (1:5000 dilution) with 1 hour incubation. The color was developed by dispensing 100 μL of TMB substrate for 8 mins, and then stopped by 100 μL of 2N HCl.

The next assay deals with T2, hCTLA4_ECD.His (N113 Q) (human, UniProt P16410 36-161).
T2 construct: extracellular domain; Glycosylation-site mutein, expressed in HEK293F cells; also called CTLA-4 with N113Q
T2 sequence (looked up): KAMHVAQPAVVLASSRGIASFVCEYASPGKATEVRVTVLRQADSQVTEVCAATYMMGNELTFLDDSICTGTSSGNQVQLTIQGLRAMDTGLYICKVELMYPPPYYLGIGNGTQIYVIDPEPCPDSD
Description: capture ELISA: W3162-1.154.8-z35 captured on anti-human Fc, hCTLA4-His mutein supernatant titrated (ng/ml), HRP-anti-His [C]. For orientation: ELISA stands for enzyme-linked immunosorbent assay.

The target of assay [2] is T3, hCTLA4_ECD.His (N145Q) (human, UniProt P16410 36-161).
T3 construct: extracellular domain; Glycosylation-site mutein, expressed in HEK293F cells; also called CTLA-4 N145Q
T3 sequence (looked up): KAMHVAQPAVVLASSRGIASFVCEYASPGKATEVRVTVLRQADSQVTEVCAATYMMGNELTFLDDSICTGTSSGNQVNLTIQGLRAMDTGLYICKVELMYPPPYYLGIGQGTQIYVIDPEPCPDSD
Described as above.

Assay [3] deals with T4, hCTLA4_ECD.His point mutant V71 to alanine (human, UniProt P16410 36-161).
T4 construct: extracellular domain; alanine-scan mutein, HEK293F supernatant
T4 sequence (looked up): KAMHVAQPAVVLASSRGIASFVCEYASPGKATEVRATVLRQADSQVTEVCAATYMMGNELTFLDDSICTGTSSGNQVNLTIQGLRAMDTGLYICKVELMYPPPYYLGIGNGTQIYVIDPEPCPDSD
Description: capture ELISA, alanine scan, vs silent alanine substitutions. As for the experimental part: (§2) In order to test how the mutations affect antibody-binding, a capture ELISA was conducted. […] After interacting with the supernatant that contains quantified CTLA4 muteins, HRP conjugated anti-His antibody (1:5000; Rockland Immunochemicals, Pottstown, Pa.) was added as detection antibody. TMB was used as substance of HRP. Absorbance was normalized according to the average of control mutants. After setting an additional cutoff to the binding fold change (<0.55), the final determined epitope residues were identified.

Assay [4] deals with T5, hCTLA4_ECD.His point mutant R70 to alanine (human, UniProt P16410 36-161).
T5 construct: extracellular domain; alanine-scan mutein, HEK293F supernatant
T5 sequence (looked up): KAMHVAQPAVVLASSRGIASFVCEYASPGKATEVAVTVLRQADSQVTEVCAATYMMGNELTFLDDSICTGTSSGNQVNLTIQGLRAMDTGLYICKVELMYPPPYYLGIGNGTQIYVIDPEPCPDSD
The assay is described as above. As for the experimental part:
as §2

Assay [5] deals with T6, hCTLA4_ECD.His point mutant M134 to alanine (human, UniProt P16410 36-161).
T6 construct: extracellular domain; alanine-scan mutein, HEK293F supernatant
T6 sequence (looked up): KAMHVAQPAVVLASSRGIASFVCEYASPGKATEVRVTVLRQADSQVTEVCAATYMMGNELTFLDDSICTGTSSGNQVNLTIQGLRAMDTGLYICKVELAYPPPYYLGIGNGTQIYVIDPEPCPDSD
Described as above. Here is the method: as §2

For assay [6], the target named is T7, hCTLA4_ECD.His point mutant H39 to alanine (human, UniProt P16410 36-161).
T7 construct: extracellular domain; alanine-scan mutein, HEK293F supernatant
T7 sequence (looked up): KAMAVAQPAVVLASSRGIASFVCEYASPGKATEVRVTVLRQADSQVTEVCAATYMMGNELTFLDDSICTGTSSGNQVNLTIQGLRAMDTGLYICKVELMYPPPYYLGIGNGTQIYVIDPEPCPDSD
The description is as above. Here is the method:
as §2

Assay [7] concerns the target T8, hCTLA4_ECD.His point mutant V73 to alanine (human, UniProt P16410 36-161).
T8 construct: extracellular domain; alanine-scan mutein, HEK293F supernatant
T8 sequence (looked up): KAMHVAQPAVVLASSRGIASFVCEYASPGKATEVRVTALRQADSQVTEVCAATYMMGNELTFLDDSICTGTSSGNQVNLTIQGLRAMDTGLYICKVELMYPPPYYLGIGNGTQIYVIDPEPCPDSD
Described as above. As for the experimental part:
as §2

Assay [8] addresses T9, hCTLA4_ECD.His point mutant C85 to alanine (human, UniProt P16410 36-161).
T9 construct: extracellular domain; alanine-scan mutein, HEK293F supernatant
T9 sequence (looked up): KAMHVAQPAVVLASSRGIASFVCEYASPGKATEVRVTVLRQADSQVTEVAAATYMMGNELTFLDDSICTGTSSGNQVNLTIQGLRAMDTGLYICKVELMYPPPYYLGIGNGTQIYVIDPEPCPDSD
Described as above. Here is the method:
as §2

For assay [9], the target named is T3, hCTLA4_ECD.His (N145Q). As to the kind of experiment: capture ELISA: W3162-1.146.19-z12 captured on anti-human Fc, hCTLA4-His mutein supernatant titrated (ng/ml), HRP-anti-His [B].
In assay [10] the target is T1, Murine CTLA-4.ECD-6×His. As to the kind of experiment: ELISA, coated mouse CTLA-4.ECD-6×His. Here is the method:
as §1

Usually EC50 (read off the curve) stands for the concentration that produces a half-maximal response. A higher EC50 (read off the curve) goes with a need for much substance. Broadly, the EC50 is the concentration that produces a half-maximal response. High values mean a need for much substance, low ones an effect from little substance.

B1: W3162_1.154.8-z35-uAb.IgG1K (antibody, V domains shown)
VH: QVQLVQSGAEVKKPGSSVKVSCKASGYTFTNYFMNWVRQAPGQGLEWMGRVDPEQGRADYAEKFKKRVTITADKSTSTAYMELSSLRSEDTAVYYCARRAMDNYGFAYWGQGTLVTVSS
VL: EIVLTQSPDFQSVTPKEKVTITCSANSALSYMYWYQQKPDQSPKLWVHGTSNLASGVPSRFSGSGSGTDFTLTINSLEAEDAATYYCHHWSNTQWTFGGGTKVEIK
notes: Humanized; label says IgG1K
As for B1, in the assay with Murine CTLA-4.ECD-6×His [1], the binding result is “no binding (tested: about 7 nM)”. The “EC50 (read off the curve)” value with hCTLA4_ECD.His (N113 Q) and in the assay with hCTLA4_ECD.His (N145Q) [2] was approximately 3 ng/mL in each case. Moreover, the Fold change is 0.347 fold in assay [3]; 0.515 fold in assay [4]; 0.455 fold in assay [5]; 0.549 fold in [6]; 0.498 fold in assay [7]; 0.218 fold in assay [8].

B2: W3162-1.146.19-z12-uAb.IgG1K (antibody, V domains shown)
VH: QVQLQESGPGLVKPSETLSLTCSVTYHTITSGYDWTWIRKPPGKGMEWIGYISYSGNTNYNPSLKSRVTISRDTSKNQFFLKLSSVTAADTAVYYCASMMVPHYYVMDAWGQGTLVTVSS
VL: DIVMTQTPLSLSVTPGQPASISCRSSQSLLNSDGNTYLYWYLQKPGQSPQLLIYLVSKLGSGVPNRFSGSGSGTDFTLKISRVEAEDVGVYYCVQGTHDPWTFGGGTKVEIK
notes: Humanized; label says IgG1K
On to B2, for which the “EC50 (read off the curve)” value with hCTLA4_ECD.His (N145Q) [9] is approximately 90 ng/mL. Also, in the assay with Murine CTLA-4.ECD-6×His [10], the EC50 was determined as 0.19 nM. Moreover, the Fold change in assay [3] turned out to be 0.343 fold; in [4] it was 0.507 fold; in [5] it was 0.254 fold; in assay [6] it was 0.529 fold; in assay [7], 0.338 fold; in assay [8], 0.256 fold.
